Data published in publication PMC7315409 (Science translational medicine, 2020).

Target: T1, recombinant high mobility group box 1 (HMGB1) (human, UniProt P09429 1-215)
T1 sequence (looked up): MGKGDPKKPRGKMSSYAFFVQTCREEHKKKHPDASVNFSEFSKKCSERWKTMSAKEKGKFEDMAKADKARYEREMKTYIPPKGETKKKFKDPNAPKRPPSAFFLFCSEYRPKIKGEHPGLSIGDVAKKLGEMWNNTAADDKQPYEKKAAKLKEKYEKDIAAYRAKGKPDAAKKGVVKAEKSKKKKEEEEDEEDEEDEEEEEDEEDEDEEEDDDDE
Experiment: radioligand binding

B1: purified syndecan-1 (natural protein)
chain: QIVAVNVPPEDQDGSGDDSDNFSGSGTGALPDTLSRQTPSTWKDVWLLTATPTAPEPTSSNTETAFTSVLPAGEKPEEGEPVLHVEAEPGFTARDKEKEVTTRPRETVQLPITQRASTVRVTTAQAAVTSHPHGGMQPGLHETSAPTAPGQPDHQPPRVEGGGTSVIKEVVEDGTANQLPAGEGSGEQDFTFETSGENTAVAAVEPGLRNQPPVDEGATGASQSLLDRKEVLG
modifications: heparan sulfate (HS) polysaccharide side chains on the core protein
B1 was tested, and the IC50 was 500 to 550 nM.
